Source: the supplement of paper PMC9170038

Tested on: MS2 coat protein
Test: apparent KD of MS2 coat protein; designed switch direction (-1 OFF switch, 1 ON switch): -1; higher = weaker reporter binding
Method in brief: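 Normalised cluster fluorescence was curve-fitted, and each design's median over clusters is its apparent KD. Before this, SNAP-549-labelled MS2 coat protein was titrated from 0.7 or 1.5 nM, doubling to 3 µM, over RNA switches transcribed on Illumina chips by stalled E. coli RNA polymerase. Titrations had no input, 200 uM small-molecule ligand, or an oligonucleotide input, and steps lasted 0.8–1.5 h (lowest) to 10–20 min (highest).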

[1] = input ligand: microRNA oligo, concentration not stated
[2] = Eterna round: R95, input ligand: FMN 200 uM
[3] = Eterna round: R95, input ligand: microRNA oligo, concentration not stated
[4] = Eterna round: R95, input ligand: none

Sequence | apparent KD of MS2 coat protein (input ligand: FMN 200 uM) [µM] | apparent KD of MS2 coat protein (input ligand: none) [µM] | apparent KD of MS2 coat protein [1] [µM] | apparent KD of MS2 coat protein [2] [µM] | apparent KD of MS2 coat protein [3] [µM] | apparent KD of MS2 coat protein [4] [µM]
UAAGAGUGAGGAUAUACGUCGCUGGCCCGGAUGGACGCAUGACAUGAGGAUCACCCAUGUAGAAGGCACAAAAC [Enxela Mod 14 - Jieux - Exclusion 2] (Eterna round: R97, puzzle: Exclusion 2) | 0.0347 | 0.0297 |  |  |  | 
UAAGGUCGUCAAUACCUAACCACAUGAGGAUCACCCAUGUCUGAGGAUAUGAAGGCGGCCCGCCAUUAGAAGGCAGCAAGGGAA [Ustiarmadi] (Eterna round: R96, puzzle: Exclusion NG 3) | 0.0132 | 0.0144 | 0.00789 |  |  | 
UAAGUUUACCGAGGAUAUGGUUUUUCCUUUUUACCAGAAGGCGGACUCAACAUGAGGAUCACCCAUGUAUAAAGGGUAUUUGGU [JR_ExcNG1_Sub045] (Eterna round: R96, puzzle: Exclusion NG 1) | 0.0578 | 0.054 | 0.0496 |  |  | 
UAAUAAUAGCAAGGAUAUGGUUAUUAUAAUAUACCAGAAGGUGCACAUGAGGAUCACCCAUGUUUUAUAAUUUGUAAUUUAAAU [First something] (Eterna round: R96, puzzle: Exclusion NG 1) |  |  | 0.0229 |  |  | 
UAAUACAAGUAAAGAUCCUACAUGAGGAUCACCCAUGUGCUCGUCUUGUAAAGUACUAUCACGAAAGUGAUAGUACU [Mat - Sensor v3 - turn-off var 1 - Eli Mod - D86] (puzzle: Sensor v3, turn-off variant 1) |  |  |  | 0.0303 | 0.022 | 0.0448
UAAUAUAGAGGAUAUACAUGAGGAUCACCCAUGUGAGUCCAUUAUGGGAUGAGAUCGGGUAGAAGGCUACGAAU [Eternabot (L2) Solution 28] (Eterna round: R97, puzzle: Exclusion 3) | 0.143 | 0.0577 |  |  |  | 
UAAUGUAUAUAGGAUAUCUAGCUGGAAACAGCUAGAGAAGGAUGUACAUGAGGAUCACCCAUGUAAAUCAAUAG [Ex6/9-A2] (Eterna round: R97, puzzle: Exclusion 6) | 0.0483 | 0.0218 |  |  |  | 
UAAUGUGCGAGAGGAUAUCGUGUACAAAGUACACGAGAAGGCUUCACAUGAGGAUCACCCAUGUAUCGAGGUGAAACACCUUGA [Omei Exc(NG)1 Bv3] (Eterna round: R96, puzzle: Exclusion NG 1) | 0.448 | 0.212 | 0.254 |  |  | 
UAAUUGAUUAAUAGAUUAUACAUGAGGAUCACCCAUGUAGGUCCUACGUGCCAUUUAAGCAGCUCGUCUUAUUCCCA [Sensor-V1 #68] (Eterna round: R97, puzzle: Sensor, turn-off variant 1) | 0.0418 | 0.049 |  |  |  | 
UAAUUGUGAGGAUAUUCGUAUAACACGGAGACGUGUUGUACGGAGAAGGCACAUGAGGAUCACCCAUGUUCCUU [Mat - Exclusion 4 - JL Mod - D18] (Eterna round: R97, puzzle: Exclusion 4) | 0.096 | 0.0152 |  |  |  | 
UACAGUCAUCCUUAUUGUUACAUGAGGAUCACCCAUGUUAGUAUAGUUAAGUUAUGUGAGUUUGUUGUUCGUUUUAU [JR_STOV1_v2_Sub078] (Eterna round: R97, puzzle: Sensor, turn-off variant 1) | 0.125 | 0.146 |  |  |  | 
UACAUGAGGAUCACCCAUGUUUUAUCAUGUGUAAUAAUAAUGUAGGAUAUGUAUUAUUUUAUUUAACAGAAGGACAAUAAUAAA [JMF's solution 2] (Eterna round: R96, puzzle: Exclusion NG 3) | 0.426 | 0.524 | 0.467 |  |  | 
UACAUGAGGAUCACCCAUGUUUUAUCAUGUGUAAUAAUAAUGUAGGAUAUGUAUUUAUUUAUUUAACAGAAGGACAAUAAUAAA [JMF's solution 3] (Eterna round: R96, puzzle: Exclusion NG 3) | 0.462 | 0.423 | 0.435 |  |  | 
UACAUGAGGAUCACCCAUGUUUUGUCGUGUAUGGUAUUUAUCUAGGAUAUCAAUUGAGUUAUUUAUGAGAAGGAGAAUAUUAAU [JMF's solution 59] (Eterna round: R96, puzzle: Exclusion NG 3) |  |  | 0.0316 |  |  | 
UACAUGAGGAUCACCCAUGUUUUGUCGUGUAUGGUAUUUAUCUAGGAUAUCAAUUUGUUAAUUUAUGAGAAGGAGAAUAUUAAU [JMF's solution 69] (Eterna round: R96, puzzle: Exclusion NG 3) |  |  | 0.0296 |  |  | 
UACAUGAGGAUCACCCAUGUUUUGUCGUGUAUGGUAUUUAUCUAGGAUAUCAUUUGAUUUAGUUAUGAGAAGGAGAAUAUUAAU [JMF's solution 86] (Eterna round: R96, puzzle: Exclusion NG 3) | 0.0336 | 0.0299 | 0.0172 |  |  | 
UACCUACAUGAGGAUCACCCAUGUCAGGAUAUCCGUGUGAACGAGUCGUUACACAGGCGGAGAAGGGACAUCGG [Eternabot (L1) Solution 65] (Eterna round: R97, puzzle: Exclusion 1) | 0.0945 | 0.0542 |  |  |  | 
UACGAGUUAGGAUAUGCUUUGGGCUCGCUUUCCUUCGAUAAACUUGAGGAUCACCCAAGUAGAAGGAACUUGUA [Mod 34 - Jieux - Exclusion 2] (Eterna round: R97, puzzle: Exclusion 2) | 0.0492 | 0.0296 |  |  |  | 
UACGGGUCAGGAUAUGCGAGAGAUUGGGAAAUAGGAAGGUAGCAGAAGGGACAUGAGGAUCACCCAUGUGAAGC [JR_Exclu4_Sub097] (puzzle: Exclusion 4) |  |  |  | 0.0322 | 0.0259 | 0.0288
UACGUGUCAGGAUAUUUGAAGCGAAUCACGAGCAUUCGCGUGGAGAAGGGACAUGAGGAUCACCCAUGUAGGCG [Eternabot (L1) Solution 32] (Eterna round: R97, puzzle: Exclusion 4) | 0.37 | 0.242 |  |  |  | 
UACUGACAUGAGGAUCACCCAUGUGAGGAUAUUCUCCUGCCAAAUUAAUGGUGGGUGUGAAGAAGGCACAAGGA [EX1 C.12] (Eterna round: R97, puzzle: Exclusion 1) | 0.098 | 0.0291 |  |  |  | 
UACUGGACAGGAUAUGUUCUUGAGCACUUGAGGAUCACCCAAGUCAUCAAGAACUCAGGCACAGAAGGGUUUAUGU [salish99_ex5_r4_005] (Eterna round: R97, puzzle: Exclusion 5) | 0.0702 | 0.0185 |  |  |  | 
UACUUACGAGGAUAUCGAUUGUGGUACAUGAGGAUCACCCAUGUAUGUGAUAUUGUAUUUCGAGAAGGCGUUCAGU [JR_E5_Sub061] (puzzle: Exclusion 5) |  |  |  |  | 0.0227 | 
UACUUCCGAGGAUAUACAUGAGGAUCACCCAUGUGCUUCAGCAUCUAAUGAUGCAUGGGUAGAAGGCGGUAGUU [LRO-Excl3-20] (puzzle: Exclusion 3) |  |  |  |  | 0.056 | 
UACUUGUUAGGAUAUCUUACAUUUGCAUCAUAGUAACCUUUGGAGAAGGGACAUGAGGAUCACCCAUGUUUGGU [tap-tap-tappy6] (Eterna round: R97, puzzle: Exclusion 4) | 0.0492 | 0.0726 |  |  |  | 
UAGAAGUCAGGAUAUCCAUGGCGGCACUUGCGUGGUGGCGUGGAGAAGGGACAUGAGGAUCACCCAUGUAAAGG [salish99-ex4-045] (Eterna round: R96, puzzle: Exclusion 4) | 0.192 | 0.1 | 0.0631 |  |  | 
UAGGAGUCAGGAUAUGCGAGAGAUGGAAGAAAGGGAAGAGAGCAGAAGGGACAUGAGGAUCACCCAUGUAAGGA [JR_Exclu4_Sub090] (puzzle: Exclusion 4) |  |  |  | 0.0342 | 0.0357 | 0.0362
UAGGUACAUGAGGAUCACCCAUGUGAGGAUAUAGAGGAAGAUUGCGAGAGGGAGAGGACUAGAAGGCACAGUGG [JR_Exclu1_Sub035] (puzzle: Exclusion 1) |  |  |  | 0.037 | 0.0281 | 0.0399
UAGUACAGAGGAUAUACAUGAGGAUCACCCAUGUGUUUCAGCUAGGAGACUAGCGAAAGUAGAAGGCUGUACUA [salish99_ex3_r4_008] (Eterna round: R97, puzzle: Exclusion 3) | 0.0229 | 0.00942 |  |  |  | 
UAGUGAGCGUGAGGAAUAUACAUGAGGAUCACCCAUGUUUGCUACUAUCUUGCUCGUCUUAUAACAACAAUUAACUG [mod-hagla-honey#50] (Eterna round: R97, puzzle: Sensor, turn-off variant 1) | 0.0148 | 0.0169 |  |  |  | 
